The source of these data is paper PMC10716038, “Talin and kindlin use integrin tail allostery and direct binding to activate integrins” (Nature Structural & Molecular Biology, 2023).

The labels stand for the following.
B1: talin-1 head domain (THD1) [not stated] / ATTO 488-labelled β3-CT (488–β3-CT) [modified: ATTO 488 at the N terminus; ATTO 488 at the N terminus] [not stated] (parent)
chain 1: MVALSLKISIGNVVKTMQFEPSTMVYDACRMIRERIPEALAGPPNDFGLFLSDDDPKKGIWLEAGKALDYYMLRNGDTMEYRKKQRPLKIRMLDGTVKTIMVDDSKTVTDMLMTICARIGITNHDEYSLVRELMEEKKDEGTGTLRKDKTLLRDEKKMEKLKQKLHTDDELNWLDHGRTLREQGVEEHETLLLRRKFFYSDQNVDSRDPVQLNLLYVQARDDILNGSHPVSFDKACEFAGFQCQIQFGPHNEQKHKAGFLDLKDFLPKEYVKQKGERKIFQAHKNCGQMSEIEAKVRYVKLARSLKTYGVSFFLVKEKMKGKNKLVPRLLGITKECVMRVDEKTKEVIQEWSLTNIKRWAASPKSFTLDFGDYQDGYYSVQTTEGEQIAQLIAGYIDIILKKKKS
chain 2: KLLITIHDRKEFAKFEEERARAKWDTANNPLYKEATSTFTNITYRGT

Variants of B1 are the subject of this experiment. As to the kind of experiment: MST. As to conditions: with ATTO 488-labelled β3-CT (488–β3-CT) [modified: ATTO 488 at the N terminus, 30-40 µM KIND2, n = 2, read off a plot.
For the variant chain 1 Y395A, the screen value amounted to 0.68.
To chain 1 K404A belongs 0.75; to chain 1 L400A, 1.1; to chain 1 K402A K403A, 0.7.
chain 1 K402A: the screen value was found to be 0.45.
The value for chain 1 I396A was 1; that for chain 1 I398A was 0.65.
For the variant chain 1 I399A, the screen value came out at 0.93.
For the variant chain 1 K401A, the screen value was 0.55.
The value for chain 1 K403E was 0.57; that for chain 1 K403A was 0.5.
